Drawing on patent US20240360201A1 (BIOCYTOGEN PHARMACEUTICALS BEIJING, published 2024), this text covers Kd, koff and kon for two molecules.

One assay concerns the target T1, FcγRIIB (human).
T1 construct: recombinant protein used as SPR analyte
As to the kind of experiment: SPR (Biacore T200, protein A sensor chip), binding to FcγRIIB. From the text:
(§1) The Fc receptors included FcγRIIB (FcγRIIB-Acro), FcγRIIA (FcγRIIA-H167-Acro), FcγRIIIA (FcγRIIIA-V176-Acro), FcγRIIIB (FcγRIIIB-NA1-Acro), FcγRI (FcγRI-Sino), and FcRn (FcRn-Acro).
(§2) The Fc receptors included FcγRI (FcγRI-Sino), FcγRIIA (FcγRIIA-H167-Acro and FcγRIIA-R167), FcγRIIB, FcγRIIIA (FcγRIIIA-F176 and FcγRIIIA-V176-Acro), and FcγRIIIB (FcγRIIIB-NA1-Acro).
Background: SPR reads the build-up and loss of mass on a sensor chip optically.

The target of the next assay is human CD40 (hCD40-his) (human, UniProt P25942 21-193). As to the kind of experiment: SPR Biacore T200; binder captured on protein A chip, target as analyte. The procedure: Binding affinity to human CD40 of the obtained fusion proteins PDL1-C40-6A7-FV3A (IgG1), PDL1-C40-6A7-FV3A-IgG4, PDL1-C40-6A7-FV3C (IgG1), PDL1-C40-6A7-FV3A1 (IgG1), PDL1-C40-6A7-FV3A2 (IgG1), and PDL1-C40-6A7-FV3A3 (IgG1) were determined by surface plasmon resonance (SPR) using Biacore™ T200 biosensor equipped with pre-immobilized protein A sensor chips. The original anti-CD40 monoclonal antibody C40-6A7 IgG2 (6A7, VH SEQ ID NO: 91, VL SEQ ID NO: 92), which the scFV was derived from, was used as a control.
human CD40 (hCD40-his), sequence (P25942 21-193 limits assumed): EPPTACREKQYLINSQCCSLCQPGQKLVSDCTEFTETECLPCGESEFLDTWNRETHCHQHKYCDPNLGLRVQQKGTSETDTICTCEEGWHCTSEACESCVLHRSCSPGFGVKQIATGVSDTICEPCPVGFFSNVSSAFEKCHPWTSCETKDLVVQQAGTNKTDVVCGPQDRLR

A further assay has as its target T2, FcγRI-Sino (human, UniProt P12314 16-288, limits assumed).
T2 construct: bought; also called CD64 Protein, Human, Recombinant (His Tag)
As to the kind of experiment: SPR (Biacore T200, protein A sensor chip), binding to FcγRI-Sino.
From the text: as §1, §2

The next assay has as its target T3, FcγRIIA-R167 (human).
T3 construct: recombinant, His tag; ACRO product; different from FcγRIIA-R167-Sino; also called Human Fc gamma RIIA/CD32a (R167) Protein, His Tag
As to the kind of experiment: SPR (Biacore T200, protein A sensor chip), binding to FcγRIIA-R167.
From the text: as §1, §2

In another assay the target is T4, FcγRIIA-H167-Acro (human, UniProt P12318 36-218, limits assumed).
T4 construct: bought; His at 167; also called Human Fc gamma RIIA/CD32a (H167) Protein, His Tag
T4 sequence (looked up): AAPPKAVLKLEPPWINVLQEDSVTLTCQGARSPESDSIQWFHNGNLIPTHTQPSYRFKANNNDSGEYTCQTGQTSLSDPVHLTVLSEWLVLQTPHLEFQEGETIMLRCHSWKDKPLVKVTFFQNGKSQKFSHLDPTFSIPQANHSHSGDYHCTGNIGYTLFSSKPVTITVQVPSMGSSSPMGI
As to the kind of experiment: SPR (Biacore T200, protein A sensor chip), binding to FcγRIIA-H167-Acro.
From the text: as §1, §2

In a further assay the target is T5, FcγRIIIA-V176-Acro (human, UniProt P08637 17-208).
T5 construct: bought; Val at 176; also called Human Fc gamma RIIIA/CD16a (V176) Protein, His Tag
T5 sequence (P08637 17-208 F176V limits assumed): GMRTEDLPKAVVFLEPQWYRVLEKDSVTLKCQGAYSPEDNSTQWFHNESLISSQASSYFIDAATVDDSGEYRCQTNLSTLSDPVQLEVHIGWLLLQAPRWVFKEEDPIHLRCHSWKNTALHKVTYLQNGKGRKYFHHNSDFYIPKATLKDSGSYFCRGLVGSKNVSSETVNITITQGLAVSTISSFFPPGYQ
In words: SPR (Biacore T200, protein A sensor chip), binding to FcγRIIIA-V176-Acro.
From the text: as §1, §2

Assay [1] has as its target T6, 6×Histidine-tagged human PD-L1 protein (hPDL1-His) (human, UniProt Q9NZQ7 19-238).
T6 construct: also called hPL1-His; His-tagged human PD-L1
As to the kind of experiment: SPR Biacore T200; binder captured on protein A chip, target as analyte. How it is done:
Binding affinities of the fusion proteins against human CTLA4 (hCTLA4-His) or human PD-L1 (hPDL1) were measured by surface plasmon resonance (SPR) using Biacore™ T200 biosensor equipped with pre-immobilized protein A sensor chips. A CTLA4 antibody CT4-4G12-IgG1 (CT4) was used as a control. ATOR1015-CD86 (CD86) and KN035-IgG1 (with D265A mutation in heavy chain constant domain) were also used as controls.

A further assay deals with T7, FcγRIIIA-F176 (human, UniProt P08637).
T7 construct: recombinant, His tag; ACRO product; different from FcγRIIIA-F176-Sino; also called Human Fc gamma RIIIA/CD16a (F176) Protein, His Tag
T7 sequence (P08637 17-208 limits assumed, form in doubt): as the sequence (P08637 17-208 F176V limits assumed) above, with V160F counted along it
In words: SPR (Biacore T200, protein A sensor chip), binding to FcγRIIIA-F176.
From the text: as §1, §2

For the next assay, the target named is T8, FcγRIIIB-NA1-Acro (human, UniProt O75015 17-200, limits assumed).
T8 construct: bought; also called Human Fc gamma RIIIB/CD16b (NA1) Protein, His Tag
T8 sequence (O75015 other isoform, or with tags, fused parts or gaps limits assumed): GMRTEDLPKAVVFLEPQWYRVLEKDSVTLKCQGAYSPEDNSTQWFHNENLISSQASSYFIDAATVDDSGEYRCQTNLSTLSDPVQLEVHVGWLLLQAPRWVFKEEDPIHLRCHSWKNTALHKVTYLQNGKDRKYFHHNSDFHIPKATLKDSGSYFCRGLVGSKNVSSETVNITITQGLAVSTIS
In words: SPR (Biacore T200, protein A sensor chip), binding to FcγRIIIB-NA1-Acro.
From the text: as §1, §2

T6 sequence (Q9NZQ7 19-238 limits assumed): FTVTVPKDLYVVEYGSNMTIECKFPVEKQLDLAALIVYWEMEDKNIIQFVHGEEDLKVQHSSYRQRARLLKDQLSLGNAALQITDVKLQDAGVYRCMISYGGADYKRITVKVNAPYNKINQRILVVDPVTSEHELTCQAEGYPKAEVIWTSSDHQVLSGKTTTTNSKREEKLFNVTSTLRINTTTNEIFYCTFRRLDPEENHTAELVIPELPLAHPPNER
T1 sequence (P31994 43-217): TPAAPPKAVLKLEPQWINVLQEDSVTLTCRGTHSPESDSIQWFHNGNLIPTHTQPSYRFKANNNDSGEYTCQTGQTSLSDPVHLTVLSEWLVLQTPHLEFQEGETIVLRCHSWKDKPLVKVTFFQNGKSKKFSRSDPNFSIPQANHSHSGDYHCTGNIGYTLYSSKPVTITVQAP
T2 sequence (P12314 16-288 limits assumed): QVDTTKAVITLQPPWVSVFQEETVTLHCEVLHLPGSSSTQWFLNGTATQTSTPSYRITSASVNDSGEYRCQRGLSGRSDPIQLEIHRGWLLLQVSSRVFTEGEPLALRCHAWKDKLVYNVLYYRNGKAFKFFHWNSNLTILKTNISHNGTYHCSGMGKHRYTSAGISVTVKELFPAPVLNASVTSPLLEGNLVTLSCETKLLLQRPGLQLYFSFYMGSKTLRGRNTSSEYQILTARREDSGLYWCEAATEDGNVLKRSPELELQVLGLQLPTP

B1: PDL1-C40-6A7-FV3A-IgG4 (bispecific antibody)
heavy: EVQLLESGGGLVQPGGSLRLSCAASGFTFSSYIMMWVRQAPGKGLEWVSSIYPSGGITFYADTVKGRFTISRDNSKNTLYLQMNSLRAEDTAVYYCARIKLGTVTTVDYWGQGTLVTVSSASTKGPSVFPLAPCSRSTSESTAALGCLVKDYFPEPVTVSWNSGALTSGVHTFPAVLQSSGLYSLSSVVTVPSSSLGTKTYTCNVDHKPSNTKVDKRVESKYGPPCPPCPAPEFLGGPSVFLFPPKPKDTLMISRTPEVTCVVVDVSQEDPEVQFNWYVDGVEVHNAKTKPREEQFNSTYRVVSVLTVLHQDWLNGKEYKCKVSNKGLPSSIEKTISKAKGQPREPQVYTLPPSQEEGGGGSGGGGSDVVMTQSPLSLPVTLGQPASISCRSSQSLLHSNGNTYLHWYQQRPGQSPNHLIYQVSNRFSGVPDRFSGSGSGTDFTLKISRVEAEDVGVYFCSQTTHVPWTFGCGTKVEIKGGGGSGGGGSGGGGSGGGGSQVQLVQSGAEVKKPGASVKLSCKASGYTFISYYIYWVKQAPGQCLEWIGGINPRNGGTNFNEKFKSRATLTVDTSISTAYMELSRLRSEDTAVYYCTRHGNGVYWGQGTTLTVSSGGGGSGGGGSVSLTCLVKGFYPSDIAVEWESNGQPENNYKTTPPVLDSDGSFFLYSRLTVDKSRWQEGNVFSCSVMHEALHNHYTQKSLSLSLGK
light: QSALTQPASVSGSPGQSITISCTGTSSDVGGYNYVSWYQQHPGKAPKLMIYDVSNRPSGVSNRFSGSKSGNTASLTISGLQAEDEADYYCSSYTSSSTRVFGTGTKVTVLGQPKANPTVTLFPPSSEELQANKATLVCLISDFYPGAVTVAWKADGSPVKAGVETTKPSKQSNNKYAASSYLSLTPEQWKSHRSYSCQVTHEGSTVEKTVAPTECS
notes: IgG4 subtype of PDL1-C40-6A7-FV3A; also called G5
Broadly, the Kd is the free concentration of one partner at which half of the binding sites on the other are occupied at equilibrium, for simple one-to-one binding. Low readings indicate a tighter complex, high ones a looser complex. What is called koff is a measure of how fast the partners let go of each other. Higher therefore signals fast dissociation. As usually defined, the kon is a measure of how fast the partners come together. Lower therefore signals slow association. With B1, the Kd with FcγRIIB stood at 766 nM; with human CD40 (hCD40-his) it was 0.852 nM; with FcγRI-Sino it was 1.22 nM; with FcγRIIA-R167, 706 nM; with FcγRIIA-H167-Acro it was 1130 nM; with FcγRIIIA-V176-Acro, 75.3 nM. Also, the koff with human CD40 (hCD40-his) was found to be 0.000432 s⁻¹. Further, the kon with human CD40 (hCD40-his) came out at 507000 M⁻¹ s⁻¹.

B2: PD1-PL1-3F2-FV3A-IgG1 (bispecific antibody)
heavy: EVQLVESGGGLVQPGGSLRLSCAASGFTFSSYSMSWVRQAPGKRLEWVAHISSGGSSTYYPDTVKGRFTISRDNSKNTLYLQMNSLRAEDTAMYYCTRQFYYGSSFWYFDVWGAGTTVTVSSASTKGPSVFPLAPSSKSTSGGTAALGCLVKDYFPEPVTVSWNSGALTSGVHTFPAVLQSSGLYSLSSVVTVPSSSLGTQTYICNVNHKPSNTKVDKKVEPKSCDKTHTCPPCPAPELLGGPSVFLFPPKPKDTLMISRTPEVTCVVVDVSHEDPEVKFNWYVDGVEVHNAKTKPREEQYNSTYRVVSVLTVLHQDWLNGKEYKCKVSNKALPAPIEKTISKAKGQPREPQVYTLPPSREEGGGGSGGGGSQVQLQESGPGLVKPSETLSLTCTVSGYSITSGYNWHWIRQFPGNCLEWMGYIHHSSITNYNPSLKSRITISRDTSKNQFSLKLSSVTAADTATYYCAREGYDYDWFAYWGQGTLVTVSSASTGGGGSGGGGSGGGGSGGGGSDIVLTQSPDFQSVTPKEKVTLSCRASQSISNNLHWYQQKPDESPKLLIKYASQSISGIPSRFSGSGSGTDFTLTINSVEAEDFAMYFCQQSKSWPFTFGCGTRLEIKGGGGSGGGGSVSLTCLVKGFYPSDIAVEWESNGQPENNYKTTPPVLDSDGSFFLYSKLTVDKSRWQQGNVFSCSVMHEALHNHYTQKSLSLSPGK
light: DNVLTQSPATLSVSPGERATLSCKASQSVDFDGDSYMNWYQQKPGQPPRLLIYAASNLESGIPARFSGSGSGTDFTLTISSVEPEDFATYYCQQSNEDPPTFGGGTKVEIKRTVAAPSVFIFPPSDEQLKSGTASVVCLLNNFYPREAKVQWKVDNALQSGNSQESVTEQDSKDSTYSLSSTLTLSKADYEKHKVYACEVTHQGLSSPVTKSFNRGEC
notes: IgG1; also called G4
Take B2: the Kd in the assay with FcγRIIB came to 2350 nM; in [1], 2.41 nM; in the assay with FcγRI-Sino it was 2.94 nM; with FcγRIIA-R167, 326 nM; in the assay with FcγRIIIA-F176 it was 84.6 nM; with FcγRIIA-H167-Acro, 633 nM. Besides, the dissociation constant (Kd) in the assay with FcγRIIIB-NA1-Acro came to 1180 nM; in the assay with FcγRIIIA-V176-Acro it was 130 nM. In addition, in assay [1], the koff came to 0.00103 s⁻¹. This molecule gave a kon in assay [1] of 429000 M⁻¹ s⁻¹.
